Experimental data taken from the supplement of paper PMC7125110.
± gives the standard error. For some assays here: Fewer inactive variants are shown than the library holds.

B1: glmS ribozyme (parent)
chain: AUAAAAGCGCCAGAACUACAGAAAUGUAGUUGACGAGGAGGAGGUUUAUCGAAUUUUCGGCGGAUGCCUCCAAA

Columns and labels:
Settings in all cases: with glucosamine-6-phosphate
glucosamine-6-phosphate [1] = variants of: B1; test: kcat; higher = faster cleavage; RNA array
Outline: (§1)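 Glucosamine-6-phosphate (40 μM to 10 mM) in HEPES/KCl/Mg(OAc)2 buffer was flowed over sequenced MiSeq chips, and tiles were imaged over ~14 h. Barcoded ribozyme variants there had been transcribed in situ by E. coli RNA polymerase and were tracked through a hybridised Cy3 probe at 37 °C. One- or two-exponential decay fits to per-tile medians, normalised to baseline and to non-cleaving reference variants, gave kobs. kcat and KM came from weighted Michaelis–Menten fits across concentrations.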

glucosamine-6-phosphate [2] = variants of: B1; test: KM; higher = weaker cofactor use; RNA array
Outline: as §1

glucosamine-6-phosphate [3] = variants of: B1; test: self-cleavage kobs at 160 uM GlcN6P; higher = faster cleavage; RNA array
Outline: as §1

glucosamine-6-phosphate [4] = variants of: B1; test: self-cleavage kobs at 640 uM GlcN6P; higher = faster cleavage; RNA array
Outline: as §1

glucosamine-6-phosphate [5] = variants of: B1; test: self-cleavage kobs at 2500 uM GlcN6P; higher = faster cleavage; RNA array
Outline: as §1

glucosamine-6-phosphate [6] = variants of: B1; test: self-cleavage kobs at 10000 uM GlcN6P; higher = faster cleavage; RNA array
Outline: as §1

glucosamine-6-phosphate [7] = variants of: B1; test: self-cleavage kobs at 40 uM GlcN6P; higher = faster cleavage; RNA array
Outline: as §1

Variant	kcat (glucosamine-6-phosphate [1]) [s⁻¹]	KM (glucosamine-6-phosphate [2]) [µM]	self-cleavage kobs at 160 uM GlcN6P (glucosamine-6-phosphate [3]) [s⁻¹]	self-cleavage kobs at 640 uM GlcN6P (glucosamine-6-phosphate [4]) [s⁻¹]	self-cleavage kobs at 2500 uM GlcN6P (glucosamine-6-phosphate [5]) [s⁻¹]	self-cleavage kobs at 10000 uM GlcN6P (glucosamine-6-phosphate [6]) [s⁻¹]	self-cleavage kobs at 40 uM GlcN6P (glucosamine-6-phosphate [7]) [s⁻¹]
A52G U56A	0.00139 ± 0.00027	4470 ± 1300	6.31e-05 ± 1.3e-05	0.000166 ± 2.9e-05	0.000441 ± 7.1e-05	0.00102 ± 0.00014	
G7C C10G C67G	1.87e-05 ± 2.3e-06						
C11G G63A C68U	< 1e-05						
C16A U69G	7.88e-05 ± 1.9e-05			7.48e-05 ± 1.5e-05	6.89e-05 ± 1.5e-05		
G7A C70U	6.43e-05 ± 1.1e-05	5580 ± 2200				4.14e-05 ± 7.5e-06	
A64C U65A	2.96e-05 ± 5.1e-06		< 1e-05				< 1e-05
G51U U69G	4.26e-05 ± 1.5e-05		5.17e-05 ± 1.2e-05	5.57e-05 ± 1.3e-05	7e-05 ± 1e-05	1.72e-05 ± 8.1e-06	
A53U U65C	0.000266 ± 3.1e-05	1370 ± 310		8.76e-05 ± 1.6e-05	0.000196 ± 5.3e-05	0.000222 ± 4.6e-05	
A6G C10A	< 1e-05					< 1e-05	< 1e-05
C67U	0.0229 ± 0.0033	1910 ± 390	0.0016 ± 0.00012	0.00529 ± 0.0002	0.0117 ± 0.00055	0.0215 ± 0.00087	0.000527 ± 1.7e-05
U45A G59U	0.00047 ± 0.00017				5.25e-05 ± 1.3e-05	0.000152 ± 2.4e-05	< 1e-05
A14U A64U	1.88e-05 ± 5.9e-07	8870 ± 560					
A39U A52G	0.00113 ± 0.00012	4750 ± 800	5.2e-05 ± 1.4e-05	0.000134 ± 1.3e-05	0.000345 ± 5.5e-05	0.00078 ± 5.8e-05	
G29A A39U	0.0047 ± 0.0016	3440 ± 1600	0.000177 ± 3.4e-05	0.000731 ± 0.00013	0.00176 ± 0.0003	0.0037 ± 0.00049	0.000107 ± 1.9e-05
A6G G37U	< 1e-05		< 1e-05			< 1e-05	< 1e-05
U56A U57C	0.00014 ± 3.4e-06	2030 ± 160			7.84e-05 ± 1.5e-05	0.000115 ± 1.5e-05	< 1e-05
U31A A52G	0.00103 ± 0.00022	4620 ± 1600	4.63e-05 ± 1.3e-05	0.000142 ± 2.3e-05	0.000305 ± 4.3e-05	0.000752 ± 7.9e-05	
C10G G37U	< 1e-05						

Variant	kcat (glucosamine-6-phosphate [1]) [s⁻¹]	KM (glucosamine-6-phosphate [2]) [µM]	self-cleavage kobs at 160 uM GlcN6P (glucosamine-6-phosphate [3]) [s⁻¹]	self-cleavage kobs at 640 uM GlcN6P (glucosamine-6-phosphate [4]) [s⁻¹]	self-cleavage kobs at 2500 uM GlcN6P (glucosamine-6-phosphate [5]) [s⁻¹]	self-cleavage kobs at 10000 uM GlcN6P (glucosamine-6-phosphate [6]) [s⁻¹]	self-cleavage kobs at 40 uM GlcN6P (glucosamine-6-phosphate [7]) [s⁻¹]
C11U G59U	0.000274 ± 3.6e-06	1920 ± 51		6.88e-05 ± 6.5e-06	0.000155 ± 1.6e-05	0.00023 ± 1.9e-05	
A6C U55A	9.15e-05 ± 2.5e-05				7.01e-05 ± 1.6e-05	7.27e-05 ± 1.2e-05	
A6U A36C G38A A52U	1.37e-05 ± 2.9e-06			< 1e-05		< 1e-05	
A15U A64U	1.4e-05 ± 4.2e-06		< 1e-05				< 1e-05
U30C G41A	1.28e-05 ± 1.8e-06			< 1e-05			
U46G	0.0111 ± 0.0013	2110 ± 340	0.000671 ± 2.7e-05	0.00241 ± 6.1e-05	0.00589 ± 0.00015	0.00965 ± 0.00026	0.000228 ± 4.5e-06
G13A U49C	< 1e-05					< 1e-05	< 1e-05
A15G C67G	0.00126 ± 0.0001	2600 ± 330	7.63e-05 ± 1.2e-05	0.000243 ± 2.4e-05	0.000654 ± 6.3e-05	0.000966 ± 0.00011	
G41A A48U	4.08e-05 ± 6.1e-06		< 1e-05		3.76e-05 ± 1.1e-05	3.63e-05 ± 1e-05	< 1e-05
G7U C67G	< 1e-05				< 1e-05		
A39U U54C	0.0342 ± 0.014			0.00436 ± 0.00054	0.00989 ± 0.0032	0.0285 ± 0.0042	0.000447 ± 5e-05
G32C A53G	0.000158 ± 4.6e-06	3340 ± 200		2.67e-05 ± 9.1e-06	6.68e-05 ± 8.8e-06	0.000119 ± 1.5e-05	
C11G C16U	< 1e-05		< 1e-05				
A15U C16G C50G A52G	1.88e-05 ± 5.2e-06						
U30A G41U	0.000138 ± 2.1e-05	608 ± 300		6.73e-05 ± 9.9e-06	0.000147 ± 1.8e-05	0.000117 ± 1.4e-05	
C16U C67G	0.000799 ± 5.5e-05	1570 ± 190	7.2e-05 ± 9.4e-06	0.000229 ± 2.2e-05	0.000566 ± 6.2e-05	0.000664 ± 5.4e-05	1.87e-05 ± 6.4e-06
A15G U47G	0.00418 ± 0.0015		0.000812 ± 0.00016	0.00171 ± 0.00031	0.00298 ± 0.00072	0.00738 ± 0.0014	0.000326 ± 5.4e-05
A14U G29C	1.25e-05 ± 3.3e-06						
